These results are taken from article PMC11388081, “Targeted degradation of VEGF with bispecific aptamer-based LYTACs ameliorates pathological retinal angiogenesis”.

For this series, the target named is VEGF (HZ-1038, Proteintech) (UniProt P15692-4 27-191). The series is described as follows: MST; strongest of V4-V6; Kd only in figure; 20 mM CaCl2; MST: 5 nM Cy5-LYTAC, 20 mM Tris-HCl pH 8.5, 20 mM KCl, 20 mM CaCl2, 0.1% Tween 20, 10 min, temperature not stated; pulldown: cell lysate with LYTAC in DPBS-Mg. As to conditions: protein: commercial; chain copies: 2; biotin implied in pulldown; 23-bp linker duplex formed by both 5' ends, 3' single-stranded aptamer tails.
VEGF (HZ-1038, Proteintech), sequence (P15692 other isoform, or with tags, fused parts or gaps): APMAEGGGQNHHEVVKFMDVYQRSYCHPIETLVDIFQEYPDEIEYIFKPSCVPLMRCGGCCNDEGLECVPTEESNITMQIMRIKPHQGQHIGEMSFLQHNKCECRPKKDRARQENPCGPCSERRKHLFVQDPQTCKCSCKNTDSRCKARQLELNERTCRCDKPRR

B1: V5 (M6PR-A / VEGF-A2 LYTAC) (mixed)
DNA 1: CCCCCACACGTAAATCAGTCATAGGGCGCGTAGATGACGAGCAGTCCTAACATCGTTTAGGAC
DNA 2: TATGACTGATTTACGTGTGGGGGTGTGGGGGTGGACGGGCCGGGTAGA
modifications: 5'-phosphate on strand 1 (T4 DNA ligase step stated)
For B1, the binding result was “binds”.
